In patent publication US20190023750A1 (SPOGEN BIOTECH, published 2019):

Target: FLS2 receptor (in corn tissue) (corn (taken from the assay tissue; …)
Experiment: cell-based or functional assay

With QRLSSGKRINSASDDAAGLAIA [Bt.Flg22-Syn03, Mutant D1Q (SEQ ID NO: 573)] the “Avg. Activity (%), ROS activity in corn (5828 YX) at 5 nM polypeptide, relative to Bt.4Q7Flg22” value was 122%.
